Experimental data reported in the nanobody polyreactivity screen of Harvey et al. (2022).

Assay: yeast display, Sf9 membrane polyspecificity reagent, FACS + sequencing; frameworks hold sequencing errors
Summary of the method: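 Polyreactivity labels are assigned by the sorting gate from which each nanobody was recovered. The gates were low and high (top ~1%), set on anti-HA fluorescence for expression and streptavidin fluorescence for reagent binding. Before sorting, galactose-induced (36–48 hours) yeast display cells were stained for 1 hour at 4 °C with 10% biotinylated, detergent-solubilized Sf9 membrane reagent.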

Row | Sequence | polyreactivity (PSR sort gate)
1 | QVQHVESGGGLVQAGGSLRLSCAASGSIFPHYAMGWYRQAPGKERELVAAISYSGGRTYYADSVKGRFTISRDNAKNTVYLQMNSLKPEDTAVYYCAKPERVLYHGDYWGQGTQVTVSS | low polyreactivity
2 | QVQLEESGGGLVPAGGILRLSCAASGSIFSPNAIGWYRQAAGKEMELDASISSRGGSTYYADSVKGRFNISRDYAKNTVYLKMNSLKPEDTAVYYCAAAVQTRRGTRFDYWGQGTQVTVSS | low polyreactivity
3 | QVQLVESGGGLVQAGGSLRLSCAASGSIFRYNAMGWYRQAPGKERELVASISISDGSTYYADSVKGRFTISRDNAKNTVYLQMNSLKPEDTAVYYCAARTRDFYYPYDYWGQGTQVTVSS | low polyreactivity
4 | QVQLVESGGGLVQAGGSLRLSCAASGRTFYGYAMGWYRQAPGKERELVAAISWTGGRTYYADSVKGRFTISRDNAKNTVYLQMNSLKPEDTAVYYCNARRRGDSGDGYIYGYWGQGTQVTVSS | high polyreactivity
5 | QVQLEESGGGLVQAGGSLRLSCAASGRLFYSNPMGWYREAPGKEREVVAAISSGASTYYADSVKGRFTISRDNAKNTVYLQMNSLKPEDTAVYYCAVYRPSSYDYGYWGQGTQVTVSS | low polyreactivity
6 | QVQLVESGGGLVQAGGSLRLSCAASGSIIARYAMGWYRQAPGKERELVAAITWSATSTYYADSVKGRFTISRDNAKNTVYLQMNSLKREDTAVYYCNAGASYFLVISQSRRDYWGQGTQVTVSS | low polyreactivity
7 | QVQLVESGGGLVQAGGSLRLSCAASGSIFTTYTMGWYRQAPGKERELVAAITTSSGSTYYADSVKGRFTISRDNAKNTVYLQMNSLKPEDTAVYSCNATYSAAVDYWGQGTQVTVSS | low polyreactivity
8 | QVPLVESVGGLVQAGGRLRLSCAASGSIFGHNTMGWYREAPGKERELVAAISVSGTRTYYADSVKGRFTISRDNAKNTVYLQMNSLKPEDTAVYYCAAEISRVRQGVAWSYKYEYWGQGTQVTVSS | high polyreactivity
9 | QVQLVESAVGLVKAGGSHRLSCAASASTFYLNARGWYRQAPGKEREFVAAIRGGGTSKRYADSVKGRFTISRDNATNTVYLQMNILKPEDSAVYYCAAGRGGHRYKVGYWGLGTQVTVSS | high polyreactivity
10 | QVQLVESGGGFVQAGGSLRLSCAASGNTFAGNAMGGYRQAPGKERELDAAISRSGVTTRYADSVKGRFTISRDNAKNTVYFQMKSLKPEDTAVSYCNADPRLRETRDYWGQVTQVTVSS | high polyreactivity
11 | QVQHVESGGGLVQAGGTLRLSCAASGSTFLINTMGWYRQAPGKERELVAAISRSGGRTYYADSVKGRFTISRDNAKNTVYLQMNSLKPEDTAVYYCAAAYVYSNSYAFGSELYSWGQGTQVTVSS | high polyreactivity
12 | QVQLVESGGGLVQAGGSLRLSCAASGSIFVGYAMGWYRQAPGKERELVAAISWSGDSTYYADSVKGRFTISRDTAKNTVYLQMNSLKPEDTAVYYCAVDYAEIGPRREVEYDYWGQGTQVTVSS | low polyreactivity
13 | QVQLVESGGGLVQAGGSLRLSCAASGSISVYNAMGWYRQAPGTERELVAAISWSGGRTSYADSVKGRFTISRDNAKNTVYLQMNSLKPEDTAVYYCAADELTVLWDEDYWGQGTQVTVSS | low polyreactivity
14 | QVQLVESGGGLVQAGGSLRLSCAASGRTFTRYAMGWYRQAPGKERELVAAISVRAGITYYADSVKGRFTISRDNAKNTVYLQMNSLKPEDTAVYYCAAKDGRSYYDRTPMVYFGQGTQVTVSS | low polyreactivity
15 | QVQLVESGGGLVQAGGSLRLSCAASGSTFGYNGMGWYRQAPGKERELVAAISGGARTYADSVKGRFTISRDNAKNTVYLQMNSLKPEDTAVYYCAADSPVSVTADDGYWGQGTQVTVSS | low polyreactivity
16 | QVQLVESGGGLVQAGGSLRLSCAASGFTFTAYAMGWYRQAPGKERELVAAINWSGSRTYYADSVKGRFTISRDNAKNTVYLQMNSLIPEDSAVYYCNTATSKSSYRHYDYWGQGTQVTVSS | high polyreactivity
17 | QVQLVESGGGLVQAGGSLRLSCAASGSTFVPYTMGWYRQAPGKERELVAAISGSGGTDYADSVKGRFTISRDNAKITVYLQLNSLKPEDTAVYYCGTDGLDFWFIYDYWGQGTQVTVSS | low polyreactivity
